The values below come from the RNAGym collection of RNA variant scans (doi:10.7554/elife.80360).

B1: HDV Ribozyme (parent)
chain: GGCCGGCAUGGUCCCAGCCUCCUCGCUGGCGCCGGCUGGGCAACAUUCCGAGGGGACCGUCCCCUCGGUAAUGGCGAAUGGGACCCA

Variants of B1 are the subject of this series. Description: self-cleavage, relative activity (ratio to wild type); higher = more cleavage; co-transcriptional.
Consider C13A C64A, for which the self-cleavage is 0.264. On to C14A A45G, for which the self-cleavage was found to be 0.703. The same measure for C13U C18U: 0.295; for C13U C18G: 0.0332. In the case of C13G C14G, the self-cleavage amounted to 0.166. Turning to C13U C57A, the self-cleavage was 0.831. In the case of C13G C61U, the self-cleavage was found to be 0.148. On to U12G G25A, for which the self-cleavage was 0.151. C13A G54U: the self-cleavage stood at 0.188. As for C14G G59A, the self-cleavage amounted to 0.962. With C14G C36U, the self-cleavage is 0.375. Regarding C13A G76C, the self-cleavage is 0.386. With C14G A45U, the self-cleavage was 0.237. As for U12G C63G, the self-cleavage amounted to 0.727. Regarding U12G C63A, the self-cleavage is 0.712. For the variant U12G C63U, the self-cleavage worked out at 0.755. C13A G31U: the self-cleavage is 0.0604.

With C13A G80U, the self-cleavage came out at 0.0654. On to C13G U23G, for which the self-cleavage amounted to 0. The same measure for C13A C75U: 0.163.

As to C14A C61G, the self-cleavage was 0.997. As to C14G U23A, the self-cleavage was determined as 0.68. C13G A56G: the self-cleavage amounted to 0.0536.

For C13G C84U, the self-cleavage was 0.095. The same measure for C14G C86U: 1.07; for U12G C26U: 0.776. Take U12G C26G: the self-cleavage turned out to be 1.08. On to U12G G34C, for which the self-cleavage was 0.172. The same measure for C13A A87G: 0.187.

Consider C14G G17U, for which the self-cleavage amounted to 0.323.

In the case of C14U A87C, the self-cleavage is 1.12.

Consider C14U A87U, for which the self-cleavage was found to be 1.08. As for C14A G53C, the self-cleavage worked out at 0.665. As for C14A U69A, the self-cleavage came to 0.997. The same measure for U12G A87U: 0.813; for C13U C84U: 0.361; for U12G G39U: 0.447. With C14U A43G, the self-cleavage worked out at 0.643.

Consider U12G G28C, for which the self-cleavage turned out to be 0.

Regarding C14G U69G, the self-cleavage came to 0.604.

In the case of U12G C58A, the self-cleavage is 0.962. Take C13G G55A: the self-cleavage is 0.0875. For the variant C13U U60A, the self-cleavage worked out at 0.554.

For U12G U23A, the self-cleavage was 0.875. C13U G25A: the self-cleavage was 0.122.

Turning to U12G U37G, the self-cleavage stood at 0.277. U12G U37C: the self-cleavage was found to be 0.692. For the variant C14G G28U, the self-cleavage was 0.107.

Turning to C13U C48U, the self-cleavage came out at 0.642.

For the variant C14G C75A, the self-cleavage worked out at 0.111. As for C13G G25U, the self-cleavage worked out at 0.232. For the variant C13U C19U, the self-cleavage came out at 0.0475.

For the variant C13U C19A, the self-cleavage amounted to 0.138. Regarding C14G C21G, the self-cleavage turned out to be 0.0449. As for U12G G54C, the self-cleavage is 0.831. Regarding C14A C36U, the self-cleavage was 0.259. C13U U46G: the self-cleavage was 0.356.

C13A C58U: the self-cleavage stood at 0.415. C14A G74C: the self-cleavage came to 0.185. Take C13U G80A: the self-cleavage was 0.31. C13G G34U: the self-cleavage was 0.136.

Regarding C14G C66G, the self-cleavage was found to be 0.391. The same measure for C14G G38A: 0.0831; for C14U A77U: 0.573. As for U12G U72C, the self-cleavage stood at 0. The same measure for U12G U72G: 0.128; for C13G C66G: 0.135. To C13G C66U belongs 0.0692.

As to C13U C30U, the self-cleavage stood at 0.261. To C13U C30G belongs 0.198; to C14G A78U, 0.185; to C13A C61U, 0.185. To C13U A78G belongs 0.178. As for C14G A83U, the self-cleavage was determined as 0.289. For the variant C13G C63U, the self-cleavage is 0. In the case of C13U C24U, the self-cleavage was found to be 0.262. The same measure for U12G G31A: 0.0504. The same measure for C14G C48U: 0.831.

Take C14G C48A: the self-cleavage amounted to 0.723. The same measure for C14A C49A: 0.782. With C14A U20C, the self-cleavage stood at 0.111. On to C13U C22G, for which the self-cleavage worked out at 0.0831. Consider C13U C22A, for which the self-cleavage was determined as 0.124. As to U12G C33U, the self-cleavage came to 0.277. U12G C33A: the self-cleavage stood at 0. C13A C84G: the self-cleavage stood at 0.237. Consider C13G G40C, for which the self-cleavage is 0.0396. To C14G C32A belongs 0.0554; to C14G C32G, 0; to C14A C84U, 0.262. Consider C14A C84A, for which the self-cleavage is 0.458. The same measure for C14G G25A: 0.0437. To C14A U23C belongs 0.997. In the case of C13A U79G, the self-cleavage is 0.151. As for C13A C30U, the self-cleavage was 0.181. For the variant U12G G80A, the self-cleavage came to 0.906. With U12G C86U, the self-cleavage was determined as 0.403. The same measure for C14G C24G: 0; for U12G U69C: 1.35; for U12G C64G: 0.492. Take C14G C44U: the self-cleavage came to 0.208.

C13G A42U: the self-cleavage is 0.0811.

As for C13A G81U, the self-cleavage worked out at 0.22.

In the case of C13A C22U, the self-cleavage came out at 0.0583. For C14G G74A, the self-cleavage is 0.199. Take C14A C24A: the self-cleavage came out at 0.383. To C14A C24G belongs 0.146; to C13G A45C, 0.0639. The same measure for C13G C44G: 0; for C13U U47A: 0.646. As for C14A U60G, the self-cleavage turned out to be 0.684.

In the case of C14A U60C, the self-cleavage was 0.485.

On to C13U G68C, for which the self-cleavage stood at 0.511. The same measure for C13U G68U: 0.614; for C14A C18A: 0.

On to C13G G52U, for which the self-cleavage came to 0. In the case of C14A G80C, the self-cleavage stood at 0.104.

With C13A C63G, the self-cleavage was 0.38. As for C14G U60A, the self-cleavage turned out to be 0.831. To C14U A16G belongs 1.21; to C13A G82U, 0.904. In the case of C14A C58A, the self-cleavage came to 1.17. To C13U U65A belongs 0.508; to C13G G82A, 0.0519. Regarding C14G A16C, the self-cleavage amounted to 0.0875. Turning to C14G A16U, the self-cleavage turned out to be 0.791. The same measure for C13G C33A: 0.0978; for C14A G34A: 0.185; for U12G G67A: 0.923.

Take U12G G67C: the self-cleavage stood at 0.962. With C13U G55C, the self-cleavage came to 0.658.

Take C13G C62U: the self-cleavage was 0.0369. With C13A A43G, the self-cleavage is 0.0831. As to C13U U27A, the self-cleavage was found to be 1.29. For the variant C14A C32G, the self-cleavage was determined as 0.0573. The same measure for C13U G38C: 0.0554; for C13A G52C: 0.383; for C13A G52A: 0.229. With U12G C85U, the self-cleavage came to 0.787. For U12G C85A, the self-cleavage turned out to be 0.712. As to C14G U47A, the self-cleavage was determined as 0. As to C13U A16U, the self-cleavage was 1.11. For the variant C13A C49U, the self-cleavage was found to be 0.119.

Turning to C13A C49G, the self-cleavage amounted to 0.0326. For the variant C13G G59C, the self-cleavage was 0.104. Take C14A A71C: the self-cleavage was 0.166. On to C13G G76C, for which the self-cleavage was 0.217. For the variant C13G G39C, the self-cleavage came out at 0.0462. C13G G39U: the self-cleavage came to 0.0361. Consider C14U C26G, for which the self-cleavage turned out to be 0.76. Take C14U C26A: the self-cleavage was determined as 1.08.

On to C13G G17C, for which the self-cleavage stood at 0.138. For the variant C14A C64U, the self-cleavage was found to be 0.743. Regarding C14G C61G, the self-cleavage amounted to 0.782. The same measure for C13U G50C: 0.636; for C14A U65C: 0.864. To U12G U60A belongs 0.68; to C13U U20A, 0.0831; to C13A C19A, 0.0302. In the case of C13A C19U, the self-cleavage was determined as 0.119.

For C13A C19G, the self-cleavage is 0.102. The same measure for C13G A77U: 0.119. Regarding C13G G67A, the self-cleavage came out at 0.138.

Take C13A U20G: the self-cleavage worked out at 0.0594. With C13A U20A, the self-cleavage is 0.0811. As to C13G C49G, the self-cleavage is 0.356. Take U12G C41G: the self-cleavage is 0.554.
